The text below walks through data of patent US20250325718A1 (Janssen / Centocor, published 2025).

What is called Kd is the equilibrium constant for the complex coming apart.

Experiment [1] deals with T1, Kallikrein related peptidase 2 (hK2), soluble human protein (human, UniProt P20151 19-261).
T1 construct: the stated signal peptide (residues 1-18) is left out, the pro-peptide (19-24) is kept; also called KLK2; kallikrein-2
Description: SPR, sentence summing up Table 14. A general note: Surface plasmon resonance follows binding to a sensor surface in real time, without labels.
Description: (§1) Affinity of selected hK2 antibodies for soluble hK2 was measured by surface plasmon resonance (SPR). […] Antibodies were captured on a sensor chip coated with an anti-Fc antibody followed by injection of soluble hK2 at various concentrations and specified association and dissociation times. Post dissociation, the surface was regenerated with an appropriate solution to prepare for the next interaction. Kinetic information (on-rate and off-rate constants) were extracted by fitting sensorgrams to the 1:1 Langmuir model. Binding affinity (KD) are reported as the ratio of rate constants (koff/kₒₙ).

Experiment [2] has as its target T1, Kallikrein related peptidase 2 (hK2), …. Put plainly: SPR, antibody captured on anti-Fc chip, soluble hK2 injected, 1:1 Langmuir fit.
Description: as §1

T1 sequence (P20151 19-261): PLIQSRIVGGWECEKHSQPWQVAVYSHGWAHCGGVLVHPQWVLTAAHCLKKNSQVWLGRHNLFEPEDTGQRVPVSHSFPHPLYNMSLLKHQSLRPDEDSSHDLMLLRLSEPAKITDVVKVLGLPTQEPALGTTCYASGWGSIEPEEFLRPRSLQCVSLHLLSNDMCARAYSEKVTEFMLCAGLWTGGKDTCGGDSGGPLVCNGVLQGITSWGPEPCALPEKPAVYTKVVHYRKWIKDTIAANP

B1: KL2B494 (Fab) (Fab, V domains shown)
VH: QVQLVESGGGLVQPGGSLRLSCAASGFTFSHYAMSWVRQAPGKGLEWVSTIGGSGGSTYYADSVKGRFTISRDNSKNTLYLQMNSLRAEDTAVYYCAKPHIVMVTALLYDGMDVWGQGTMVTVSS
VL: SSELTQPPSVSVAPGQTARITCGGNNIGSKSVHWYQQKPGQAPVLVVYDDSDRPSGIPERFSGSNSGNTATLTISRVEAGDEADYYCQVWDSSSDHVVFGGGTKLTVL
Turning to B1, the results for the Kd in experiment [1] and in experiment [2] were under 0.5 nM and 0.053 nM, respectively.

B2: KL2B467 (Fab) (Fab, V domains shown)
VH: QVQLVESGGGVVQPGRSLRLSCAASGFTFSYYGMHWVRQAPGKGLEWVAFISYDGSNKYYADSVKGRFTISRDNSKNTLYLQMNSLRAEDTAVYYCAHLPYSGSYWAFDYWGQGTQVTVSS
VL: QSVLTQPPSVSVAPGQTASITCGGDNIGSKSVHWYQQKPGQAPVLVVYDNSDRPSGIPERFSGSNSGTTATLTISRVEAGDEADYYCQVWDSSSDHPVVFGGGTKVTV
In the case of B2, the Kd was under 0.5 nM in experiment [1] and 0.078 nM in experiment [2].

B3: KL2B359 (scFv-LH-Fc) (Fc fusion)
scFv: EIVLTQSPATLSLSPGERATLSCRASESVEYFGTSLMHWYQQKPGQPPRLLIYAASNVESGIPARFSGSGSGTDFTLTISSVEPEDFAVYFCQQTRKVPYTFGGGTKVEIKGGSEGKSSGSGSESKSTGGSQVQLQESGPGLVKPSQTLSLTCTVSGNSITSDYAWNWIRQFPGKRLEWIGYISYSGSTTYNPSLKSRVTISRDTSKNQFSLKLSSVTAADTAVYYCATGYYYGSGFWGQGTLVTVSS
notes: scFv (VL-linker-VH) fused to an Fc; also called scFv20; KL2B359_LH; not shown: The hinge and Fc of the scFv-LH-Fc
Molecule B3 had an equilibrium dissociation constant (Kd) in experiment [2] of 0.7 to 1 nM.

B4: KL2B53 (Fab) (Fab, V domains shown)
VH: EVQLVESGGGVVQPGRSLRLSCVASGFTFSSYDIHWVRQAPGKGLEWVAIISYDGSKKDYTDSVKGRFTISRDNSKNTLYLQMDSLRVEDSAVYSCARESGWSHYYYYGMDVWGQGTMVTVSS
VL: DIVMTQSPSSLSASVGDRVTITCRASQDISNYLAWYQQKPGKVPKFLIYAASTLHSGVPSRFSGSGSGTDFTLTISSLQPEDVATYYCQKYNSAPYTFGQGTRLEIK
As for B4, the dissociation constant (Kd) in experiment [1] was under 0.5 nM; in experiment [2] it was 0.08 nM.

B5: KL2B30 (Fab) (Fab, V domains shown)
VH: QVQLQESGPGLVKPSETLSLTCTVSGGSISSYYWSWIRQPPGKGLEWIGYIYYSGSTNYNPSLKSRVTISVDTSKNQFSLKLSSVTAADTAVYYCAGTTIFGVVTPNFYYGMDVWGQGTTVTVSS
VL: DIQMTQSPSFLSASVGDRVTITCRASQGISSYLAWYQQKPGKAPKFLIYAASTLQSGVPSRFSGSGSGTEFTLTISSLQPEDFATYYCQQLNSYPLTFGGGTKVEIK
For the molecule B5, the values for the dissociation constant (Kd) in experiment [1] and in experiment [2] were under 0.5 nM and 0.46 nM, respectively.

B6: KL2B242 (Fab) (Fab, V domains shown)
VH: QVQLQESGPGLVKPSETLSLTCTVSGGSISSYYWSWLRQPAGSGLEWIGRLYVSGFTNYNPSLKSRVTLSLDPSRNQLSLKLSSVTAADTAVYYCAGDSGNYWGWFDPWGQGTLVTVSS
VL: SYELTQPPSVSVSPGETASITCSGDQLGENYACWYQQKPGQSPVLVIYQDSKRPSGIPERFSGSNSGNTATLTISGTQALDEADYYCQAWDNSIVVFGGGTKLTVL
On to B6, for which the equilibrium dissociation constant (Kd) is under 0.5 nM in experiment [1] and 0.04 nM in experiment [2].

B7: KL2B413 (scFv-LH-Fc) (Fc fusion)
scFv: EIVLTQSPSFLSASVGDRVTITCRASQGISSYLSWYQQKPGKAPKLLIYATSTLQSGVPSRFSGSGSGTEFTLTISSLQPEDFATYYCQQLNSYPRTFGQGTKVEIKGGSEGKSSGSGSESKSTGGSEVQLVESGGGLVQPGGSLRLSCAASGFTFSSYWMTWVRQAPGKGLEWVANIKQDGSERYYVDSVKGRFTISRDNAKNSLYLQMNSLRAEDTAVYYCARDQNYDILTGHYGMDVWGQGTTVTVSS
notes: scFv (VL-linker-VH) fused to an Fc; also called scFv18; KL2B413_LH; not shown: The hinge and Fc of the scFv-LH-Fc
For the molecule B7, binding in experiment [2] was characterised by a dissociation constant (Kd) of 34.3 nM.
